Reference: the RNAGym collection of RNA variant scans (doi:10.1073/pnas.2313332121)

B1: TPR t1 (parent)
chain: GACCAAUCUGCCCUCAGAGCUCGAGAACAUCUUCGGAUGCAGAGGAGGCAGGCUUCGGUGGCGCGAUAGCGCCAACGUCCUCAACCUCCAAUGCAUCCCACCACAUGAUGAUGCCUGAAGAGCCUUGGUUUUUUG

Variants of: B1
Assay: polymerase ribozyme fitness, log enrichment relative to wild type (log ratio); higher = more active; in vitro selection for triplet polymerase activity
Summary of the method: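 Libraries of mutants in each subunit of a heterodimeric triplet polymerase ribozyme were generated by PCR and transcribed. In triplicate, each went through one in vitro selection round: annealing with biotinylated primer, partner subunit and triplets; frozen incubation at −7 °C; gel excision of extended constructs; streptavidin-bead capture; RT-PCR. Fitness, taken from Illumina sequencing of input and output libraries, is the logarithm of a genotype's enrichment over wild-type enrichment, averaged across replicates with inverse-variance weights. The logarithm is base 2, and genotypes needed ≥10 input reads and ≥1 read per output to be kept.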

Going from G48A G77A C88U to G48A C72G A103U A119G, the “polymerase ribozyme fitness (log ratio)” value falls from -0.845 to -3.79.

First: C49A C73A G93U
Second: G48C C115A
The “polymerase ribozyme fitness (log ratio)” value of the first is higher: -1.28 for the first, -1.84 for the second.

Compared with G48A C64U C73A, C49A A91C C97G C99U G113A is lower in “polymerase ribozyme fitness (log ratio)” value: -0.705 for the first, -7.59 for the second.

First: G48C U81A G127C
Second: C49A G51C A100C U132A
The “polymerase ribozyme fitness (log ratio)” value of the first is higher: -3.51 for the first, -5.52 for the second.

First: G48A C62A C73U
Second: C49A C73U C88U C94U C123U U132G G135U
The “polymerase ribozyme fitness (log ratio)” value of the first is lower: -3.55 for the first, -1.74 for the second.

Compared with C49A A91G, G48U G69A G135U is lower in “polymerase ribozyme fitness (log ratio)” value: -1.63 for the first, -5.98 for the second.

Compared with C49A A90C, C49A A90U is higher in “polymerase ribozyme fitness (log ratio)” value: -1.35 for the first, -0.956 for the second.

First: G48C A83U A108G
Second: G48C G128A
The “polymerase ribozyme fitness (log ratio)” value of the first is higher: -1.66 for the first, -3.43 for the second.

Compared with G48U G63U C72U C86A A91C, C49A A66C U87A is higher in “polymerase ribozyme fitness (log ratio)” value: -5.91 for the first, -1.04 for the second.

Going from G48C A83U U87A to G48U G58U G60U C82G, the “polymerase ribozyme fitness (log ratio)” value rises from -0.806 to 0.276.

Compared with C49A G71U U78A G120C, C49A G93C U112A is lower in “polymerase ribozyme fitness (log ratio)” value: 0.393 for the first, 0.173 for the second.

Compared with C49A G52U G71C, C49A G61A G127C G135C is higher in “polymerase ribozyme fitness (log ratio)” value: -1.75 for the first, -0.458 for the second.

First: C49A C56A U130C
Second: G48A C53A U59G G61C C79U C101A U126A
The “polymerase ribozyme fitness (log ratio)” value of the first is higher: -0.746 for the first, -3.84 for the second.

First: G48U C56G C80G
Second: G48U U54C C101U U130G
The “polymerase ribozyme fitness (log ratio)” value of the first is lower: -3.4 for the first, -1.13 for the second.

Going from G48A C115U C124U to G47U U96A, the “polymerase ribozyme fitness (log ratio)” value falls from -1.31 to -2.1.

Compared with G48U U96C U116A A121U, G48U U55G G61U is higher in “polymerase ribozyme fitness (log ratio)” value: -1.06 for the first, -0.0419 for the second.

First: G48A G52U U55C U125A
Second: G48U U54G G58C U129A
The “polymerase ribozyme fitness (log ratio)” value of the first is higher: -2.1 for the first, -2.45 for the second.

Compared with G48A A66U U78G, G48A U106C is higher in “polymerase ribozyme fitness (log ratio)” value: -1.56 for the first, 0.21 for the second.

First: G48U G57C U96A
Second: G48C C49A C56U G93U
The “polymerase ribozyme fitness (log ratio)” value of the first is higher: -1.49 for the first, -1.8 for the second.

Going from C49A A91C G127A to G48A C49G C56U, the “polymerase ribozyme fitness (log ratio)” value rises from -3.35 to -0.3.

First: G48C U78A
Second: G48A G77U
The “polymerase ribozyme fitness (log ratio)” value of the first is higher: -0.274 for the first, -2.11 for the second.

First: C49A C72U U109C U112A A121C
Second: G48C C79A
The “polymerase ribozyme fitness (log ratio)” value of the first is lower: -6.03 for the first, -3.15 for the second.

Compared with G48C C56U C101A U112C G135C, G48U A84C C114U U116G U132A is lower in “polymerase ribozyme fitness (log ratio)” value: -0.346 for the first, -7.04 for the second.

First: G48U C62U A84C C115A
Second: G48U A50G
The “polymerase ribozyme fitness (log ratio)” value of the first is lower: -1.79 for the first, -1.02 for the second.

Compared with G48A C53A U59G G61C, G48C A95G U129C is lower in “polymerase ribozyme fitness (log ratio)” value: -0.194 for the first, -1.6 for the second.

Compared with G48A C70A G120U G128A G135A, G48C C70U is higher in “polymerase ribozyme fitness (log ratio)” value: -2.26 for the first, -0.829 for the second.

Compared with G48A G63A U92C, C49A C124U is higher in “polymerase ribozyme fitness (log ratio)” value: -3.14 for the first, 0.812 for the second.

First: C49A C64U U129C U133C
Second: G48A G63U
The “polymerase ribozyme fitness (log ratio)” value of the first is higher: -0.175 for the first, -0.443 for the second.

Going from C49A G69U U81A C89A G93U C115G C123G to C49A C56A G63A A75U A83C G113U C123G G127A, the “polymerase ribozyme fitness (log ratio)” value falls from -2.93 to -5.69.

Compared with C49A C94U, G48U G69U G135A is lower in “polymerase ribozyme fitness (log ratio)” value: 0.159 for the first, -1.62 for the second.

Going from C49A C72G to G48C C49A U55C G61A A95G G110A, the “polymerase ribozyme fitness (log ratio)” value falls from -0.887 to -2.85.

Compared with G48C U116G, G48A G63C C72U C124G is higher in “polymerase ribozyme fitness (log ratio)” value: -3.09 for the first, -0.71 for the second.

Going from G48A C56U C70A to C49A C102A A121U G122U U133C, the “polymerase ribozyme fitness (log ratio)” value rises from -4.74 to -0.655.

Going from G48A G52A G60A C73U C82G C88U C102G to G48U C62A, the “polymerase ribozyme fitness (log ratio)” value rises from -5.86 to -1.81.

First: G48U C62G
Second: G48A G63U C101A
The “polymerase ribozyme fitness (log ratio)” value of the first is lower: -3.39 for the first, -2.69 for the second.

First: G48A G58A U78C G110A
Second: G48A C53U G63U G110A
The “polymerase ribozyme fitness (log ratio)” value of the first is higher: -1.9 for the first, -3.27 for the second.

First: G48U C49U C72A C73A U131C
Second: G48U U92C G120A G127C U134G
The “polymerase ribozyme fitness (log ratio)” value of the first is lower: -2.61 for the first, -1.91 for the second.

First: C49A G63U G65C G120C
Second: G48A C85U
The “polymerase ribozyme fitness (log ratio)” value of the first is lower: -6.43 for the first, -0.302 for the second.

Going from G48U A50G G58C G117U G122A to G48C C56A C72A U78A, the “polymerase ribozyme fitness (log ratio)” value rises from -4.46 to -1.06.

Compared with G47U U87A, G48A G60U C104A is higher in “polymerase ribozyme fitness (log ratio)” value: -2.55 for the first, -1.82 for the second.

Compared with G48U G113A, C49A C64U C123U is higher in “polymerase ribozyme fitness (log ratio)” value: -1.18 for the first, 0.702 for the second.

For G47U U78G G135A, the “polymerase ribozyme fitness (log ratio)” value was -1.83.
